According to patent US20240279318A1 (NANJING LEGEND BIOTECH, published 2024):
Residue numbers refer to the chain shown, from its start. Like-named read-outs stand apart in the source and are kept apart here. Blank lines part the entries; values can stand above or below the binder they belong to.

What was measured:
[1] = target: T1, AFP158/HLA-A*02:01 complex (human); experiment: SPR, fold vs AS170036 VL1VH1;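 also: crude scFv muteins immobilised on a sensor chip, peptide–MHC complex passed over at several concentrations, binding then buffer-driven dissociation, KD estimated from on- and off-rates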
T1 construct: flowed as analyte in SPR
Protocol: (§1) The experiment was carried out as follows. The crude scFv protein were captured onto the sensorchip. Different concentrations (320, 160, 40 nM) of AFP158/HLA-A*02:01 complex flowed over the sensorchip surface, and were allowed to bind the antibody fragment for 100 s followed by injection of the running buffer to allow dissociation of the complex. On-rate (kd) and off-rate (kd) were calculated based on association and dissociation curve, and were used to estimate the equilibrium dissociation constant (KD).
(§2) The crude scFv muteins were then subjected to SPR affinity measurement by the method mentioned above.

[2] = target: T1, AFP158/HLA-A*02:01 complex; experiment: SPR, crude scFv captured, pMHC analyte
Protocol: as §1, §2

[3] = target: T1, AFP158/HLA-A*02:01 complex; experiment: SPR, fold vs AS170036 VL1VH1; remark: listed apart in the source;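 also: crude scFv muteins immobilised on a sensor chip, peptide–MHC complex passed over at several concentrations, binding then buffer-driven dissociation, KD estimated from on- and off-rates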
[4] = target: T1, AFP158/HLA-A*02:01 complex; experiment: SPR, crude scFv captured, pMHC analyte; remark: listed apart in the source

B1: AS170036 VL1VH1-56N98F (scFv)
scFv: QSALTQPRSVSGSPGQSVTISCAGTSSDVGSENYVSWYQQHPGKAPKLMIYQVNKRASGVPDRFSGSKSGNTASLTISGLQAEDEADYYCASYRSSDFNIVFGGGTKLTVLGGGGSGGGGSGGGGSEVQLVESGGGLVQPGGSLRLSCAASGFTFSSYAMSWVRQAPGKGLEWVSTINSGTNSPYYADSVKGRFTISRDNSKNTLYLQMNSLRAEDTAVYYCAKNFFDGSWFLGPPAMDYWGQGTLVTVSSHHHHHH
notes: also called 04-AS170036 VL1VH1-56N98F
- Affinity increase [1]: 8.2 fold
- Kd [2]: 27 nM
- koff [2]: 0.0097 s⁻¹
- kon [2]: 360000 M⁻¹ s⁻¹

B2: AS170036 VL1VH1-57K108S (scFv)
scFv: B1 scFv with F98H, N182G, S183K, G234S
notes: also called 27-AS170036 VL1VH1-57K108S
- Affinity increase [1]: 10.1 fold
- Kd [2]: 22 nM
- koff [2]: 0.0026 s⁻¹
- kon [2]: 120000 M⁻¹ s⁻¹

B4: AS170036 VL1VH1-57M98I (scFv)
scFv: B1 scFv with F98I, N182G, S183M
notes: also called 14-AS170036 VL1VH1-57M98I
- Affinity increase [1]: 5.6 fold
- Kd [2]: 40 nM
- koff [2]: 0.013 s⁻¹
- kon [2]: 310000 M⁻¹ s⁻¹

B6: AS170036 VL1VH1-57M108A (scFv)
scFv: B1 scFv with F98H, N182G, S183M, G234A
notes: also called 28-AS170036 VL1VH1-57M108A
- Affinity increase [1]: 13.6 fold
- Kd [2]: 17 nM
- koff [2]: 0.004 s⁻¹
- kon [2]: 240000 M⁻¹ s⁻¹

B9: AS170036 VL1VH1-57H108S (scFv)
scFv: B1 scFv with F98H, N182G, S183H, G234S
notes: also called 24-AS170036 VL1VH1-57H108S
- Affinity increase [1]: 14.2 fold
- Kd [2]: 16 nM
- koff [2]: 0.0022 s⁻¹
- kon [2]: 140000 M⁻¹ s⁻¹

B11: AS170036 VL1VH1-57M98Q108S (scFv)
scFv: B1 scFv with F98Q, N182G, S183M, G234S
notes: also called 84-AS170036 VL1VH1-57M98Q108S
- Affinity increase [3]: 16.7 fold
- Kd [4]: 14 nM
- koff [4]: 0.0021 s⁻¹
- kon [4]: 160000 M⁻¹ s⁻¹

B12: AS170036 VL1VH1-57K98F (scFv)
scFv: B1 scFv with N182G, S183K
notes: also called 10-AS170036 VL1VH1-57K98F
- Affinity increase [1]: 11.8 fold
- Kd [2]: 19 nM
- koff [2]: 0.004 s⁻¹
- kon [2]: 210000 M⁻¹ s⁻¹

B14: AS170036 VL1VH1-56Y108S (scFv)
scFv: B1 scFv with F98H, N182Y, G234S
notes: also called 18-AS170036 VL1VH1-56Y108S
- Affinity increase [1]: 19.2 fold
- Kd [2]: 12 nM
- koff [2]: 0.0017 s⁻¹
- kon [2]: 140000 M⁻¹ s⁻¹

B15: AS170036 VL1VH1-57K108D (scFv)
scFv: B1 scFv with F98H, N182G, S183K, G234D
notes: also called 26-AS170036 VL1VH1-57K108D
- Affinity increase [1]: 18.9 fold
- Kd [2]: 12 nM
- koff [2]: 0.0022 s⁻¹
- kon [2]: 190000 M⁻¹ s⁻¹

B16: AS170036 VL1VH1-56N98I (scFv)
scFv: B1 scFv with F98I
notes: also called 05-AS170036 VL1VH1-56N98I
- Affinity increase [1]: 10.7 fold
- Kd [2]: 21 nM
- koff [2]: 0.0056 s⁻¹
- kon [2]: 270000 M⁻¹ s⁻¹

B18: AS170036 VL1VH1-56N108A (scFv)
scFv: B1 scFv with F98H, G234A
notes: also called 19-AS170036 VL1VH1-56N108A
- Affinity increase [1]: 14.9 fold
- Kd [2]: 15 nM
- koff [2]: 0.0036 s⁻¹
- kon [2]: 240000 M⁻¹ s⁻¹

B19: AS170036 VL1VH1-98I108S (scFv)
scFv: B1 scFv with F98I, N182G, G234S
notes: also called 36-AS170036 VL1VH1-98I108S
- Affinity increase [1]: 7.7 fold
- Kd [2]: 29 nM
- koff [2]: 0.007 s⁻¹
- kon [2]: 240000 M⁻¹ s⁻¹

Results, then the binder that gave them:

- Affinity increase [1]: 23.5 fold
- Kd [2]: 9.6 nM
- koff [2]: 0.002 s⁻¹
- kon [2]: 210000 M⁻¹ s⁻¹
B3: AS170036 VL1VH1-57H108D (scFv)
scFv: B1 scFv with F98H, N182G, S183H, G234D
notes: also called 23-AS170036 VL1VH1-57H108D

- Affinity increase [1]: 20.5 fold
- Kd [2]: 11 nM
- koff [2]: 0.0028 s⁻¹
- kon [2]: 250000 M⁻¹ s⁻¹
B5: AS170036 VL1VH1-98Q108A (scFv)
scFv: B1 scFv with F98Q, N182G, G234A
notes: also called 37-AS170036 VL1VH1-98Q108A

- Affinity increase [1]: 19.1 fold
- Kd [2]: 12 nM
- koff [2]: 0.0039 s⁻¹
- kon [2]: 330000 M⁻¹ s⁻¹
B7: AS170036 VL1VH1-98F108A (scFv)
scFv: B1 scFv with N182G, G234A
notes: also called 31-AS170036 VL1VH1-98F108A

- Affinity increase [1]: 48.1 fold
- Kd [2]: 4.7 nM
- koff [2]: 0.00093 s⁻¹
- kon [2]: 200000 M⁻¹ s⁻¹
B8: AS170036 VL1VH1-56Y108A (scFv)
scFv: B1 scFv with F98H, N182Y, G234A
notes: also called 16-AS170036 VL1VH1-56Y108A

- Affinity increase [1]: 32.5 fold
- Kd [2]: 6.9 nM
- koff [2]: 0.0014 s⁻¹
- kon [2]: 210000 M⁻¹ s⁻¹
B10: AS170036 VL1VH1-57H108A (scFv)
scFv: B1 scFv with F98H, N182G, S183H, G234A
notes: also called 22-AS170036 VL1VH1-57H108A

- Affinity increase [1]: 24.8 fold
- Kd [2]: 9.1 nM
- koff [2]: 0.0017 s⁻¹
- kon [2]: 190000 M⁻¹ s⁻¹
B13: AS170036 VL1VH1-57H98Q (scFv)
scFv: B1 scFv with F98Q, N182G, S183H
notes: also called 09-AS170036 VL1VH1-57H98Q

- Affinity increase [1]: 21 fold
- Kd [2]: 11 nM
- koff [2]: 0.0023 s⁻¹
- kon [2]: 220000 M⁻¹ s⁻¹
B17: AS170036 VL1VH1-56Y98F (scFv)
scFv: B1 scFv with N182Y
notes: also called 01-AS170036 VL1VH1-56Y98F

- Affinity increase [1]: 20.1 fold
- Kd [2]: 11 nM
- koff [2]: 0.0031 s⁻¹
- kon [2]: 280000 M⁻¹ s⁻¹
B20: AS170036 VL1VH1-98I108A (scFv)
scFv: B1 scFv with F98I, N182G, G234A
notes: also called 34-AS170036 VL1VH1-98I108A; 34-AS170036 VL1VH1-98I08A
